B1: Azoarcus group I ribozyme (parent)
chain: GUGCCUUGCGCCGGGAAACCACGCAAGGGAUGGUGUCAAAUUCGGCGAAACCUAAGCGCCCGCCCGGGCGUAUGGCAACGCCGAGCCAAGCUUCGGCGCCUGCGCCGAUGAAGGUGUAGAGACUAGACGGCACCCACCUAAGGCAAACGCUAUGGUGAAGGCAUAGUCCAGGGAGUGGCGAAAGUCACACAAACCGG

Variants of: B1
Assay: reverse-splicing fitness (ratio to wild type); higher = more active; in vitro selection; Mg2+ level not given
How it was run: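 An in vitro group I ribozyme library with randomized positions was T7-transcribed and gel-purified. In triplicate, 10 pmol RNA in EPPS pH 7.5 was reacted with 50 pmoles of a 30-nt RNA substrate for 1 h at 37 °C across several added MgCl2 levels (1–48 mM), then stopped with EDTA. Products were reverse transcribed from a substrate-complementary primer, PCR-amplified and sequenced (HiSeq 4000). Fitness is a variant's read proportion after selection over that before, normalised to wild type.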

Variant | reverse-splicing fitness
GUGCCUUGCGCCGGGAAACCACGCAAGGGAUGGUGUCAAAUUCGGCGAAACCUAAGCGCCCGCCCGGGCGUAUGGCAACGCGGAGCCAAGCUUCGGCGCCUGCGCCGAUGAAGGUGUAGGGACUAGACGGCACCCACCUAAGGCGAACGAUAUGGUGAAGGCAUAGUCCAGGGAGUGGCGAAAGUCACACAAACCGG [C82G A120G A145G C150A] | 0.0107
GUGCCUUGCGCCGGGAAACCACGCAAGGGAUGGUGUCAAAUUCGGCGAAACCUAAGCGCCCGCCCGGGCGUAUGGCAACGCGGAGCCAAGCUUCGGCGCCUGCGCCGAUGAAGGUGUAGGGACUAGACGGCACCCACCUAAGGCGAACGAUAUGGUGAAGGCAUAGUCAAGGGAGAGGCGAAAGUCACACAAACCGG [C82G A120G A145G C150A C169A U176A] | 0.0199
GUGCCUUGCGCCGGGAAACCACGCAAGGGAUGGUGUCAAAUUCGGCGAAACCUAAGCGCCCGCCCGGGCGUAUGGCAACGCGGAGCCAAGCUUCGGCGCCUGCGCCGAUGAAGGUGUAGGGACUAGACGGCACCCACCUAAGGCCAACGCUAUGGUGAAGGCAUAGUCUAGGGAGUGGCGAAAGUCACACAAACCGG [C82G A120G A145C C169U] | 0.0209
GUGCCUUGCGCCGGGAAACCACGCAAGGGAUGGUGUCAAAUUCGGCGAAACCUAAGCGCCCGCCCGGGCGUAUGGCAACGCGGAGCCAAGCUUCGGCGCCUGCGCCGAUGAAGGUGUAGGGACUAGACGGCACCCACCUAAGGCCAACGCUAUGGUGAAGGCAUAGUCGAGGGAGUGGCGAAAGUCACACAAACCGG [C82G A120G A145C C169G] | 0.0468
GUGCCUUGCGCCGGGAAACCACGCAAGGGAUGGUGUCAAAUUCGGCGAAACCUAAGCGCCCGCCCGGGCGUAUGGCAACGCGGAGCCAAGCUUCGGCGCCUGCGCCGAUGAAGGUGUAGGGACUAGACGGCACCCACCUAAGGCCAACGCUAUGGUGAAGGCAUAGUCGAGGGAGGGGCGAAAGUCACACAAACCGG [C82G A120G A145C C169G U176G] | 0.00393
GUGCCUUGCGCCGGGAAACCACGCAAGGGAUGGUGUCAAAUUCGGCGAAACCUAAGCGCCCGCCCGGGCGUAUGGCAACGCGGAGCCAAGCUUCGGCGCCUGCGCCGAUGAAGGUGUAGGGACUAGACGGCACCCACCUAAGGCCAACGCUAUGGUGAAGGCAUAGUCGAGGGAGAGGCGAAAGUCACACAAACCGG [C82G A120G A145C C169G U176A] | 0.0291
GUGCCUUGCGCCGGGAAACCACGCAAGGGAUGGUGUCAAAUUCGGCGAAACCUAAGCGCCCGCCCGGGCGUAUGGCAACGCGGAGCCAAGCUUCGGCGCCUGCGCCGAUGAAGGUGUAGGGACUAGACGGCACCCACCUAAGGCCAACGCUAUGGUGAAGGCAUAGUCGAGGGAGCGGCGAAAGUCACACAAACCGG [C82G A120G A145C C169G U176C] | 0.0224
GUGCCUUGCGCCGGGAAACCACGCAAGGGAUGGUGUCAAAUUCGGCGAAACCUAAGCGCCCGCCCGGGCGUAUGGCAACGCGGAGCCAAGCUUCGGCGCCUGCGCCGAUGAAGGUGUAGGGACUAGACGGCACCCACCUAAGGCCAACGCUAUGGUGAAGGCAUAGUCUAGGGAGAGGCGAAAGUCACACAAACCGG [C82G A120G A145C C169U U176A] | 0.0207
GUGCCUUGCGCCGGGAAACCACGCAAGGGAUGGUGUCAAAUUCGGCGAAACCUAAGCGCCCGCCCGGGCGUAUGGCAACGCGGAGCCAAGCUUCGGCGCCUGCGCCGAUGAAGGUGUAGGGACUAGACGGCACCCACCUAAGGCCAACGCUAUGGUGAAGGCAUAGUCUAGGGAGGGGCGAAAGUCACACAAACCGG [C82G A120G A145C C169U U176G] | 0.00392
GUGCCUUGCGCCGGGAAACCACGCAAGGGAUGGUGUCAAAUUCGGCGAAACCUAAGCGCCCGCCCGGGCGUAUGGCAACGCGGAGCCAAGCUUCGGCGCCUGCGCCGAUGAAGGUGUAGGGACUAGACGGCACCCACCUAAGGCCAACGCUAUGGUGAAGGCAUAGUCUAGGGAGCGGCGAAAGUCACACAAACCGG [C82G A120G A145C C169U U176C] | 0.0185
GUGCCUUGCGCCGGGAAACCACGCAAGGGAUGGUGUCAAAUUCGGCGAAACCUAAGCGCCCGCCCGGGCGUAUGGCAACGCGGAGCCAAGCUUCGGCGCCUGCGCCGAUGAAGGUGUAGGGACUAGACGGCACCCACCUAAGGCCAACGCUAUGGUGAAGGCAUAGUCCAGGGAGCGGCGAAAGUCACACAAACCGG [C82G A120G A145C U176C] | 0.0158
GUGCCUUGCGCCGGGAAACCACGCAAGGGAUGGUGUCAAAUUCGGCGAAACCUAAGCGCCCGCCCGGGCGUAUGGCAACGCGGAGCCAAGCUUCGGCGCCUGCGCCGAUGAAGGUGUAGGGACUAGACGGCACCCACCUAAGGCCAACGCUAUGGUGAAGGCAUAGUCCAGGGAGGGGCGAAAGUCACACAAACCGG [C82G A120G A145C U176G] | 0.00484
GUGCCUUGCGCCGGGAAACCACGCAAGGGAUGGUGUCAAAUUCGGCGAAACCUAAGCGCCCGCCCGGGCGUAUGGCAACGCGGAGCCAAGCUUCGGCGCCUGCGCCGAUGAAGGUGUAGGGACUAGACGGCACCCACCUAAGGCCAACGCUAUGGUGAAGGCAUAGUCCAGGGAGAGGCGAAAGUCACACAAACCGG [C82G A120G A145C U176A] | 0.0133
GUGCCUUGCGCCGGGAAACCACGCAAGGGAUGGUGUCAAAUUCGGCGAAACCUAAGCGCCCGCCCGGGCGUAUGGCAACGCGGAGCCAAGCUUCGGCGCCUGCGCCGAUGAAGGUGUAGGGACUAGACGGCACCCACCUAAGGCGAACGCUAUGGUGAAGGCAUAGUCCAGGGAGUGGCGAAAGUCACACAAACCGG [C82G A120G A145G] | 0.0281
GUGCCUUGCGCCGGGAAACCACGCAAGGGAUGGUGUCAAAUUCGGCGAAACCUAAGCGCCCGCCCGGGCGUAUGGCAACGCGGAGCCAAGCUUCGGCGCCUGCGCCGAUGAAGGUGUAGGGACUAGACGGCACCCACCUAAGGCGAACGAUAUGGUGAAGGCAUAGUCAAGGGAGUGGCGAAAGUCACACAAACCGG [C82G A120G A145G C150A C169A] | 0.0126
